From paper PMC8409056 come the findings set out here.

Series [1] has as its target SARS-CoV-2 spike S1 subunit (SARS-CoV-2, UniProt P0DTC2 16-685).
Series [2] addresses SARS-CoV-2 spike RBD-Fc fusion (SARS-CoV-2, UniProt P0DTC2 319-541). Description: ELISA on aptamer-coated gold slide.

B1: CoV-2-RBD-4C aptamer (Aptamer-4C) (structured_DNA)
DNA: ATCCAGAGTGACGCAGCATTTCATCGGGTCCAAAAGGGGCTGCTCGGGATTGCGGATATGGACACGT
modifications: 5'-thiol, immobilized on gold
For B1, the binding result in series [1] and in series [2] was “binds” throughout.
